First the molecules themselves.
B1: 3B41 (antibody, V domains shown)
VH: EVQLVQSGAEVKKPGASVKVSCKVSGYTLTELSMHWVRQAPGKGLEWMGVFDPLEGDGVYAEKFRGRVIMTEDTSTDTGYMELTSLRSEDTAIYYCATKAKDYYYESSDYSPYYYYYMDVWGKGTTVTVSS
VL: EIVLTQSPGTLSLSPGERATLSCRASQSVSSNYLAWYQQKPGQAPRLLIYGASSRATGIPDRFSGSGSGTDFTLSISRLEPEDFAVYYCQQYGTSSCTFGQGTKLEIKR
notes: also called 3B41HC; 3b41kc
B2: 3B27 (antibody, V domains shown)
VH: EVQLVESGGGLVQPGGSLRISCSATGFTFSTHAMHWVRQAPGKGLEYVSAINSNGRSAFYADSVKGRVTISRDNSKNTLFLQMTSLRAEDTAVYYCVKGPLLRYLDSWGQGTLVTVSS
VL: EIVLTQSPATLSVSPGERATLSCRAGQSVSSDLAWYQHKPGQAPRLLIYDASKRATGIPARFSGSGSGTDFTLTISSLEPEDFAVYYCQHRTNWPPSITFGQGTRLEIKR
notes: also called 3B27HC; 3b27kc
B3: 8ANC24 (antibody, V domains shown)
VH: QVQLVQSGAEVKMPGASVKVSCKVSGYSLTELSIHWVRQAPGKRLEWMGGFDPEDDERIYAQKFQDRVTMTEDTSTDTAYMDLNSLRSEDTAVYYCTTGGLYCSSISCIMDVWGQGTTVIVSS
VL: EIVMTQSPATLSMSPGERATLSCRASLSVNTNLAWYQQKPGQAPRLLIYGASTRATGIPARFSGSGSGTEFTLTISSLQSEDFALYYCQQYNHWPQTFGQGTKVEIKR
notes: also called 8ANC24HC; 8ANC24KC
B4: 8ANC50 (antibody, V domains shown)
VH: QGQLVQSGGGVKKPGTSVTISCLASEYTFTEFTIHWIRQAPGQGPLWLGLIKRSGRLMTAYRFQDRLSLRRDRSTGTVFMELRNLRMDDTAVYYCARDGLGELAPAYQYGIDVWGQGTTVIVSS
VL: EIVLTQSPTTLSLSPGERATLSCRASQGVNLVVWYQQKRGQAPRLLIYGPSDRAPGVPDRFSARGSGTEFSLVISSVEPDDFALYYCQEYSSTPYNFGTGTRVDRKR
notes: also called 8ANC50HC; 8ANC50KC
B5: 8ANC5 (antibody, V domains shown)
VH: QVQLVQSGAEVRKPGSSLKVSCKSSGGTFSRFVVNWVRQAPGQGLEWMGGMIPIFGIAKYAQKFQDRVTMTADESKNTVYLDFSSLRSDDTAVYYCARDRGDTRLLDYGDYEDERYYYGMDVWGQGTTVIVSS
VL: DIQMTQSPPSLSASVGDRVTITCQASQDINNFLNWYQQKPGKAPRLLIYDASNLESGVSSRFSGSRSGTDFTLTISSLLPEDIATYSCQQYSNLPYTFSQGTKLEIKR
notes: also called 8ANC5HC; 8ANC5KC
B6: 8ANC14 (antibody, V domains shown)
VH: QVQLVQSGAEVKKPGASVKVSCKVSGYTLTELSIHWVRQAPGKGLEWMGGFDSEDGEAFYKQNFQGRVTMTEDTSTDTAYMELRRLRSEDTAVYYCATADRFKVAQDEGLFVIFDYWGQGTLVTVSS
VL: EIVLTQSPATLSLSPGERATLSCRASQSINNYLAWYQQKPGQAPRLLIYDASNRATGIPARFSGGGSGTDFTLTISSLEPEDFAVYYCQQRANWRLLTFGGGTKVEIKR
notes: also called 8ANC14HC; 8ANC14KC
B7: 3BNC60 (antibody, V domains shown)
VH: QVHLSQSGAAVTKPGASVRVSCEASGYKISDHFIHWWRQAPGQGLQWVGWINPKTGQPNNPRQFQGRVSLTRQASWDFDTYSFYMDLKAVRSDDTAIYFCARQRSDFWDFDVWGSGTQVTVSSASTKG
VL: DIQMTQSPSSLSARVGDTVTITCQANGYLNWYQQRRGKAPKLLIYDGSKLERGVPARFSGRRWGQEYNLTINNLQPEDVATYFCQVYEFIVPGTRLDLKRTVAA
notes: also called 3BNC60HC; 3BNC60KC
B8: 3BNC117 (antibody, V domains shown)
VH: B7 VH with H3Q, S5L, K28N, S30R, H32Y, Q73H, Y81F, V90L, I97V, F107Y
VL: DIQMTQSPSSLSASVGDTVTITCQANGYLNWYQQRRGKAPKLLIYDGSKLERGVPSRFSGRRWGQEYNLTINNLQPEDIATYFCQVYEFVVPGTRLDLKRTVAAPSVFIFPPSD
notes: also called 3BNC117HC; 3bnc117kc
B9: NIH45-46 (antibody, V domains shown)
VH: QVRLSQSGGQMKKPGESMRLSCRASGYEFLNCPINWIRLAPGRRPEWMGWLKPRGGAVNYARKFQGRVTMTRDVYSDTAFLELRSLTSDDTAVYFCTRGKYCTARDYYNWDFEH
VL: EIVLTQSPATLSLSPGETAIISCRTSQSGSLAWYQQRPGQAPRLVIYSGSTRAAGIPDRFSGSRWGADYNLSISNLESGDFGVYYCQQYEFFG
B10: 12A21 (antibody, V domains shown)
VH: SQHLVQSGTQVKKPGASVRVSCQASGYTFTNYILHWWRQAPGQGLEWMGLIKPVFGAVNYARQFQGRIQLTRDIYREIAFLDLSGLRSDDTAVYYCARDESGDDLKWHLHPWGQGTQVIVSP
VL: DIQMTQSPSSLSASVGDRVTINCQAGQGIGSSLNWYQKKPGRAPKLLVHGASNLQRGVPSRFSGSGFHTTFTLTISSLQPDDVATYFCAVFQWFGPGTKVDIKR
notes: also called 12A21HC; 12a21kc
B11: 12A12 (antibody, V domains shown)
VH: SQQLVQSGTQVKKPGASVRISCQASGYSFTDYVLHWWRQAPGQGLEWMGWIKPVYGARNYARRFQGRINFDRDIYREIAFMDLSGLRSDDTALYFCARDGSGDDTSWHLDPWGQGTLVIVSA
VL: DIQMTQSPSSLSASVGDRVTITCQAGQGIGSSLQWYQQKPGKAPKLLVHGASNLHRGVPSRFSGSGFHTTFSLTISGLQRDDFATYFCAVLEFFGPGTKVEIKR
notes: also called 12A12HC; 12a12kc
B12: 8ANC134 (antibody, V domains shown)
VH: QGQLVQSGGGVKKPGTSVTISCLASEYTFNEFVIHWIRQAPGQGPVWLGLIKRSGRLMTSYKFQDRLSLRRDRSTGTVFMELRGLRLDDTAVYYCARDGLGEVAPAYLYGIDAWGQGSTVIVTS
VL: B4 VL with T9A, V29L, L31F, R39G, Y48H, S51T, T99P
notes: also called 8ANC134HC; 8ANC134KC
B13: 8ANC131 (antibody, V domains shown)
VH: B12 VH with V11L, V46L, S60A, K62N, S68R, L87P, A106D, L108R, A113V, S124A
VL: B4 VL with T9A, V29L, L31F, Y48H, G49A, D52G, L84I, T99P
notes: also called 8ANC131HC; 8ANC131KC
B14: 1NC9 (antibody, V domains shown)
VH: QVRLVQSGAQLKKPGASVTVSCEASGYNFVNYIINWVRQTPGRSFEWVGMIDPRRGRPWSAQKFQGRLTLTRDIDSEKLYMHLSGLRGDDTAVYYCARQDSDFHDGHGHTLRGMFDSWGQGSPVTVSS
VL: QVLSVSGTPGQRVIISCSGTSSNVGGNLVSWYQHLPGAAPRLLIHRDDQRPSGVPDRFSGSKSGNSASLVISGLRSDDEADYFCAAYDSTFSLPVFGGGTRLTVLS
notes: also called LSSNEC9HC; LSSNEC9LC
B15: 1B2530 (antibody, V domains shown)
VH: QVRLEQSGAAMRKPGASVTLSCQASGYNFVKYIIHWVRQKPGLGFEWVGMIDPYRGRPWSAHKFQGRLSLSRDTSMEILYMTLTSLKSDDTATYFCARAEAASDSHSRPIMFDHWGQGSRVTVSS
VL: QSALTQPPSASGAPGQRVTISCSGGPSNVGGNYVYWYRQFPGTAPTLLILRDDQRPSGVPDRFSASKSGNSASLAISGLRPDDEGFYFCATYDSDGSIRLFGGGTALTVLS
notes: also called LSSB2530HC; LSSB2530LC
B16: 3BNC55 (antibody, V domains shown)
VH: QVQLVQSGTAVKRPGASVRVSCQASGYTFTDYFIYWWRQAPGQGLEWLGWINPLTSQPSYPSRFQGRLTLTRDTFDEMLYMDLRGLRSDDTGIYFCARRHSDYCDFDIWGSGTQIIVSS
VL: DIQMTQSPSSLSASVGDKVTITCQTSAGYLNWYQQRRGRAPKLLMYDGSRLVTGVPSRFSGRRWGTQYNLTIGSLQPEDIATYYCQVYEFFGPGTRLDLKS
notes: also called 3BNC55HC; 3BNC55KC
B17: 3BNC66 (antibody, V domains shown)
VH: QVQLVQSGAALKKPGASLRISCQTYGYKFTDHLIYWWRQAPGQGLEWIGWIKPETGQPSYSYRFQGRVSLTRDTFEEIAFMDLRGLRSDDTAIYFCARRHTDYCVFDVWGSGSQIIVSS
VL: B16 VL with K18T, S26N, A27K, R50K, F59L, S101R
notes: also called 3BNC66HC; 3bnc66kc
B18: 3BNC156 (antibody, V domains shown)
VH: B17 VH with A79V, T101S, V105D, S111G, I115V
VL: B16 VL with K18T, S26N, A27K, R36K, R50K, F59L, S101R
notes: also called 3BNC156HC; 3bnc156kc
B19: 8ANC195 (antibody, V domains shown)
VH: QIHLVQSGTEVKKPGSSVTVSCKAYGVNTFGLYAVNWVRQAPGQSLEYIGQIWRWKSSASHHFRGRVLISAVDLTGSSPPISSLEIKNLTSDDTAVYFCTTTSTYDKWSGLHHDGVMAFSSWGQGTLISVSA
VL: DIQMTQSPSTLAASIGGTVRVSCRASQSITGNWVAWYQQRPGKAPRLLIYRGAALLGGVPSRFSGSAAGTDFTLTIGNLQAEDFGTFYCQQYDTYPGTFGQGTKVEVKR
notes: also called 8ANC195HC; 8ANC195KC

In general, Kd refers to the constant that tells how readily two partners part at equilibrium. The low end stands for tighter binding, the high end for weaker binding. In general, koff refers to the first-order rate constant of dissociation. A lower koff goes with slow dissociation. The term kon denotes a measure of how fast the partners come together. Higher therefore signals faster complex formation.

Changes are numbered by the printed parent chain.

The target in the first experiment is T1, YU2 gp120 (HIV-1 YU2, UniProt P35961 32-498).
T1 construct: domain: gp120
The experiment can be described thus: ELISA, column Binding. (In general: In an ELISA, binding on a coated surface is turned into a signal by an enzyme label.)
Experimental: (§1) ELISAs. […] After washing, plates were blocked 2 h with 2% BSA, 1 μM EDTA, 0.05% Tween-PBS (Blocking buffer) and then, incubated 2h with IgG antibodies diluted at 4 μg/ml and several consecutive 1:4 dilutions in PBS. After washing, the plates were developed by incubation for 1 h with goat HRP-conjugated anti-mouse IgG (Jackson ImmunoReseach) (at 0.8 μg/ml in blocking buffer) and by adding 100 μl of HRP chromogenic substrate (ABTS solution, Invitrogen). […] Background values given by incubation of PBS alone in coated wells were subtracted. […] Threshold values for reactivity were determined by using control antibodies mGO53 (negative), eiJB40 (low positive), and ED38 (high positive).
Consider B1, for which the binding result is recorded as “binds”.
As to B2, the binding result is reported as “binds”.

Another experiment deals with T1, YU2 gp120. The experiment can be described thus: ELISA, column Binding. The source holds these as a separate data set.
Experimental: as §1
Take B3: the binding result is “binds”.
On the same count and under the same terms, in the case of B4 it was “binds”; in that of B5, “binds”.
As for B6, the binding result was “binds”.

The target of another experiment is T2, YU-2 gp140 (HIV-1 YU2, UniProt P35961 32-670).
T2 construct: domain: gp140; also called YU2 gp140 trimer
Briefly: SPR, gp140 on chip, IgG injected. For orientation: Surface plasmon resonance follows binding to a sensor surface in real time, without labels.
B7 returned a Kd of 6.81 nM, a koff of 0.000186 s⁻¹ and an on-rate (kon) of 27300 M⁻¹ s⁻¹.
As to B8, the affinity, expressed as Kd, was 6.54 nM; the koff came out at 0.000199 s⁻¹; the kon was 30400 M⁻¹ s⁻¹.
As to B9, the equilibrium dissociation constant (Kd) is 6.75 nM, the koff is 0.000287 s⁻¹ and the kon was 42600 M⁻¹ s⁻¹.
Molecule B10 gave a koff of 3.44e-07 s⁻¹ and a kon of 91800 M⁻¹ s⁻¹.
Take B11: the Kd was determined as 0.315 nM, the koff was found to be 1.44e-05 s⁻¹ and the kon stood at 45900 M⁻¹ s⁻¹.
Take B12: the Kd turned out to be 113 nM, the koff was determined as 0.00174 s⁻¹ and the kon is 15500 M⁻¹ s⁻¹.
B13 gave a dissociation constant (Kd) of 16.5 nM, a koff of 0.00109 s⁻¹ and a kon of 65900 M⁻¹ s⁻¹.
B14 gave a dissociation constant (Kd) of 12 nM, a koff of 0.000581 s⁻¹ and a kon of 48300 M⁻¹ s⁻¹.
B15 displayed a Kd of 34.2 nM, a koff of 0.00162 s⁻¹ and a kon of 47400 M⁻¹ s⁻¹.
On to B16, for which the Kd turned out to be 57.8 nM, the koff is 0.000755 s⁻¹ and the kon came to 13100 M⁻¹ s⁻¹.
B17 returned a Kd of 88.1 nM, a koff of 0.00141 s⁻¹ and an on-rate constant (kon) of 16000 M⁻¹ s⁻¹.
For the molecule B18, the affinity, expressed as Kd, was 175 nM; the koff was determined as 0.00198 s⁻¹; the kon worked out at 11300 M⁻¹ s⁻¹.
In the case of B19, the Kd worked out at 34.3 nM, the koff turned out to be 0.00167 s⁻¹ and the kon worked out at 48800 M⁻¹ s⁻¹.

The next experiment concerns the target T2, YU-2 gp140. Briefly: SPR, gp140 on chip, IgG injected; minus sign of the exponent missing in print (kd/ka gives 3.75e-12).
The molecule B10 returned a Kd of 0.00375 nM. This counts as picomolar.
